What was measured:
[1] = Tenofovir encapsulation in bolaamphiphile vesicles (UV absorbance after Sephadex G50 separation); type: physicochemical; details: vesicles with vs without SA, Sephadex G50, absorbance at 260 nm
Procedure: Bolaamphiphiles, cholesterol, and CHMES (2:1:1 mole ratio) are dissolved in chloroform or a suitable solvent. […] The solvents are evaporated under vacuum and the resultant thin films are hydrated in 0.2 mg/mL CF solution in PBS and probe-sonicated (Vibra-Cell VCX130 sonicator, Sonics and Materials Inc., Newtown, Conn., USA) with amplitude 20%, pulse on: 15 sec, pulse off: 10 sec to achieve homogenous vesicle dispersions. Vesicle size and zeta potential were determined using a Zetasizer Nano ZS (Malvern Instruments, UK).
Methods were established to determine quantitatively the amount of the encapsulated tenofovir based on a UV absorption and determined the percent of tenofovir encapsulation by various vesicle formulations (data not shown). […] One objective of this work was to achieve the maximum amount of tenofovir encapsulated per vesicle along with a minimum loss of the non-encapsulated drug. Accordingly, several parameters were examined, such as varying the ratio among the vesicle components, changing the ratio of tenofovir to bolaamphiphiles, varying the pH of the hydration solution and also adding to the formulation additional additives, in the attempt to increase the encapsulation capacity of the vesicles.
In particular, in order to maximize tenofovir encapsulation the following parameters were studied: (1) tenofovir to GLH ratio; (2) adjusting the concentrations of cholestyrl hemisuccinate (CHEM) and cholesterol (CHOL), components that are used in the vesicle formulation, (3) examining several buffers and pHs in the encapsulation process, (4) time of sonication, and (5) tenofovir concentration, and (6) addition of stearyl amine to the vesicle formulation to enhance encapsulation by complexation with tenofovir.
The vesicles were prepared from formulations with and without SA and the non-encapsulated tenofovir (free tenofovir) was separated from the encapsulated tenofovir on Sephadex G50 column and the absorbance at 260 nm of each fraction collected from the column was read.

[2] = Fluorescence in cerebral cortex after i.v. injection of albumin-FITC; type: in vivo; details: mouse cerebral cortex fluorescence
Text: FIG. 5A: Fluorescence in mouse cerebral cortex after i.v. injection of albumin-FITC (non-encapsulated) FIG. 5B: Fluorescence in mouse cerebral cortex after i.v. injection of albumin-FITC encapsulated in GLH-20 vesicles.

## CCCCCCCCCCCCCCCCCCN [SA, stearyl amine]
[1]
  effect of stearyl amine on tenofovir encapsulation: increase tenofovir encapsulation

## Albumin-FITC: FITC-labelled protein albumin
[2]; encapsulated in GLH-20 vesicles
  delivery to the brain: delivered successfully to the brain
[2]; un-encapsulated
  brain accumulation: little, if any, brain accumulation

From patent US11304964B2, “Bolaamphiphilic compounds, compositions and uses thereof” (priority 2012, dated 2022)
